Tests used:
ASM = biological target: T1, ASM (Mus musculus, UniProt Q04519); assay: ASM activity in plasma of depression-induced (RSD stress) mice; assay type: in vivo; conditions: 50 mg/kg i.p. twice weekly for 4 weeks prior to induction, vs PBS, FIG. 58B
T1 construct: from tissue; host or cells: mouse serum/plasma and brain tissue (APP/PS1, RSD-stressed C57BL/6, FUS R521C mice)
T1 sequence (Q04519 45-627): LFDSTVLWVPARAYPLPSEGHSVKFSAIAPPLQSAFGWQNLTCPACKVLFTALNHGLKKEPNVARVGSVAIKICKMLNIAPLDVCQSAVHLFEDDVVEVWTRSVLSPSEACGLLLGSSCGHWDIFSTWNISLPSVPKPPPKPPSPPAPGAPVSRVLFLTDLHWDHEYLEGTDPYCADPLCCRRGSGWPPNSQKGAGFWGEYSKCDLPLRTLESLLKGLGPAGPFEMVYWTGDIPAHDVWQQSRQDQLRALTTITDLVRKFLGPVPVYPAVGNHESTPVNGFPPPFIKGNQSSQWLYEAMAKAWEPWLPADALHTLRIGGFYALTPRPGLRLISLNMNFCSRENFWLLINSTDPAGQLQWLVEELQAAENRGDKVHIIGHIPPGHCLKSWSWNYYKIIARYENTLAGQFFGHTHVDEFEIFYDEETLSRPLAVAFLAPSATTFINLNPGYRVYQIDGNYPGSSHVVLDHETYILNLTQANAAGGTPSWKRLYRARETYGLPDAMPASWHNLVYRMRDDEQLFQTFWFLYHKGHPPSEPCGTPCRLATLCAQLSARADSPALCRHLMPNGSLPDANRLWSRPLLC
Method: The concentration level of ASM was measured as follows. Specifically, 3μ ? of mouse serum, brain tissue and fibroblast samples were mixed with ASM activity buffer and stored at 37° C. 114 μ ? of ethanol was added to terminate the hydrolysis reaction, followed by centrifugation. 30 μ ? of supernatant was transferred to a glass vial, of which 5 μ ? was applied to the UPLC system. The ASM concentration levels were quantified by comparison with sphingomyelin and Bodipy (aminoacetaldehyde) conjugated with ceramide. The extraction and quantification of the sphingomyelin and ceramide was carried out by extracting and drying the lipids from the sample according to a known conventional method, and resuspending the dried lipid extract to 25 μl of 0.2% Igepal CA-630 (Sigma-Aldrich), and the concentration levels of each lipid were quantitated using the UPLC system. […]
The concentration level of ASM was measured as follows. […] The ASM concentration levels were quantified by comparison with sphingomyelin and Bodipy (aminoacetaldehyde) conjugated with ceramide. The extraction and quantification of the sphingomyelin and ceramide was carried out by extracting and drying the lipids from the sample according to a known conventional method, and resuspending the dried lipid extract to 25 μl of 0.2% Igepal CA-630 (Sigma-Aldrich), and the concentration levels of each lipid were quantitated using the UPLC system.

[1] = test system: depression-induced animal model (WT/RSD); assay: Depression behaviour tests (Open field, Dark & Light, Tail suspension, Force swim) in RSD mice; assay type: in vivo, mouse; conditions: 50 mg/kg i.p. twice weekly, vs PBS, FIG. 59A-59D
Method: For depression-induced animal model, C57BL/6 mice (Charles River, UK) were used as those with depression by inducing Repeated Social Defeat (RSD) stress for 10 days. Repeated Social Defeat (RSD) stress was induced by placing two male, 6-8 week-old C57BL/6 mice with one male, 6-8 week-old CD-1 mouse (aggressive intruder mouse) in the same cage for 10 days, 2 hours daily. After 10 days, depression of C57BL/6 mice was confirmed through the depression behavior test. To confirm the therapeutic effect of ASM inhibitor (Smpd1 miR RNAi) in the depressed animal model, 6-week-old male C57BL/6 mice were injected with said ASM inhibitor via tail vein injection twice weekly in a dosage of 50 μg/mice for 4 weeks prior to the induction of depression. Four weeks later, behavioral analysis was performed after inducing Repeated Social Defeat (RSD) stress for 10 days, followed by obtaining plasma samples of the mice (FIG. 47A). To determine whether ASM inhibition by Smpd1 miR RNAi injection leads to the improvement of depression in a depression-induced animal model, an Open field test, a Dark & Light test, a Tail suspension test and Force swim test were performed, respectively. For depression-induced animal model, C57BL/6 mice (Charles River, UK) were used as those with depression by inducing Repeated Social Defeat (RSD) stress for 10 days. […]

level of ASM activity in the plasma (ASM): significantly low
B1: ASM-ab 23A12C3: self-made monoclonal ASM antibody, Koma biotech; heavy chain SEQ ID NO. 29, light chain SEQ ID NO. 30 (antibody)
heavy: MGWSWIFLFLLSGTAGVHSEVQLQQSGPVLVKPGASVKMSCKASGYTFTDYYMNWVKQSHGKSLEWIGVINPYNDGTSYNQKFKGKATLTVDKSSSTAYMELNSLTSEDSAVYYCAREKLYYYGRDYAMDYWGQGTSVTVSSAKTTPPSVYPLAPGSAAQTNSMVTLGCLVKGYFPEPVTVTWNSGSLSSGVHTFPAVLQSDLYTLSSSVTVPSSTWPSQTVTCNVAHPASSTKVDKKIVPRDCGCKPCICTVPEVSSVFIFPPKPKDVLTITLTPKVTCVVVDISKDDPEVQFSWFVDDVEVHTAQTKPREEQINSTFRSVSELPIMHQDWLNGKEFKCRVNSAAFPAPIEKTISKTKGRPKAPQVYTIPPPKEQMAKDKVSLTCMITNFFPEDITVEWQWNGQPAENYKNTQPIMDTDGSYFVYSKLNVQKSNWEAGNTFTCSVLHEGLHNHHTEKSLSHSPGK
light: MSSAQFLGLLLLCFQGTRCDIQMTQTTSSLSASLGDRVTISCRSSQDISNYLNWCQQKPDGTVKLLIYYTSRLHSGVPSRFSGSGSGTDYSLTISNLEQEDIATYFCQQDNTLPYTFGGGTKLEIKRADAAPTVSIFPPSSEQLTSGGASVVCFLNNFYPKDINVKWKIDGSERQNGVLNSWTDQDSKDSTYSMSSTLTLTKDEYERHNSYTCEATHKTSTSPIVKSFNRNEC
modifications: 23A12C3_Heavy chain; 23A12C3_Light chain
notes: self-made monoclonal ASM antibody, Koma biotech; 30
symptoms of depression [1]: significantly improve

From patent US12545745B2, “Method for treating a degenerative neurological disorders comprising administering ASM inhibitor” (KYUNGPOOK NATIONAL UNIVERSITY INDUSTRY-ACADEMIC COOPERATION …, priority 2013, dated 2026)
